# In patent US20240132603A1 (HARBOUR BIOMED US, published 2024):
# Substitutions are numbered along the chain they refer to. Numbers in names are those of the source. Where two headings read alike, the source gives them in different places.
# B1: PR004668 (antibody, human IgG1, kappa)
# heavy: not shown
# light: DIVMTQSPLSLPVTPGEPASISCRSSKSLLHSNGKIYLYWFLQKPGQSPQLLIYRMSNLASGVPDRFSGSGSGTDFTLKISRVEAEDVGVYYCMQHLEYPLTFGQGTKLEIKRTVAAPSVFIFPPSDEQLKSGTASVVCLLNNFYPREAKVQWKVDNALQSGNSQESVTEQDSKDSTYSLSSTLTLSKADYEKHKVYACEVTHQGLSSPVTKSFNRGEC
# notes: humanized; same VH/VL as PR004520, other heavy chain entry
# B2: PR006275AF (antibody, human IgG1, kappa)
# heavy: not shown
# light: B1 light with P15L, E17Q, G34A, L42Q, K44R, Q50R
# modifications: afucosylated (AF) Fc glycan, produced with 2-fluoro peracetylated fucose
# notes: also called PR00PR006275AF; R00PR006275AF
# B3: PR006276AF (antibody, human IgG1, kappa)
# heavy: not shown
# light: B1 light with P15L, E17Q, G34A, L42Q, K44R, Q50R
# modifications: afucosylated (AF) Fc glycan, produced with 2-fluoro peracetylated fucose
# B4: PR004125 (antibody, human IgG1, kappa)
# heavy: not shown
# light: DIVMTQAAPSVPVTPGESVSISCRSSKSLLHSNGNTYLYWFLQRPGQSPQLLIYRMSNLASGVPDRFSGSGSGTAFTLRISRVEAEDVGVYYCMQHLEYPLTFGAGTKLEMKRTVAAPSVFIFPPSDEQLKSGTASVVCLLNNFYPREAKVQWKVDNALQSGNSQESVTEQDSKDSTYSLSSTLTLSKADYEKHKVYACEVTHQGLSSPVTKSFNRGEC
# notes: chimeric, human IgG1 constant region
# B5: PR004250 (antibody, human IgG1, kappa)
# heavy: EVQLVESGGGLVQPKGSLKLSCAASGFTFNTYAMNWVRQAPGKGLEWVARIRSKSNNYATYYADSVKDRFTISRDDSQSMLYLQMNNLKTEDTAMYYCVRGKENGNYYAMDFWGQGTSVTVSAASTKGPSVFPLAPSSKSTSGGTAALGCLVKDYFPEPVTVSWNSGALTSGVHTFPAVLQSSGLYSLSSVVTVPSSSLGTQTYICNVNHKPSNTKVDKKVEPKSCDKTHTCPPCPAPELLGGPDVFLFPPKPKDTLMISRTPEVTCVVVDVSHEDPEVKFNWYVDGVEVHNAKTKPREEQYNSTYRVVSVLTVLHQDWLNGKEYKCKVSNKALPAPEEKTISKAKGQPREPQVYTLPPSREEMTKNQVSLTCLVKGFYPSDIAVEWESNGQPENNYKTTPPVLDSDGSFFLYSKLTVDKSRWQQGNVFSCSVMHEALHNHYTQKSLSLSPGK
# light: B4 light
# notes: PR004125 with S239D and I332E (DE) in the IgG1 constant region
# B6: PR005172 (antibody, human IgG1, kappa, V domains shown)
# VH: EVQLVESGGGLVQPKGSLKLSCAASGFTFNTYAMNWVRQAPGKGLEWVARIRSKSNNYATYYADSVKDRFTISRDDSQSMLYLQMNNLKTEDTAMYYCVRGKENGNYYAMDFWGQGTSVTVSA
# VL: DIVMTQAAPSVPVTPGESVSISCRSSKSLLHSNGKIYLYWFLQRPGQSPQLLIYRMSNLASGVPDRFSGSGSGTAFTLRISRVEAEDVGVYYCMQHLEYPVTFGAGTKLEIKR
# notes: heavy chain entry as PR004128
# B7: PR005171 (antibody, human IgG1, kappa, V domains shown)
# VH: B6 VH
# VL: B6 VL with V101M
# notes: heavy chain entry as PR004128
# B8: PR005170 (antibody, human IgG1, kappa, V domains shown)
# VH: B6 VH
# VL: B6 VL with V101I
# notes: heavy chain entry as PR004128
# B9: PR004970 (antibody, human IgG1, kappa, V domains shown)
# VH: EVQLVESGGGLVQPGGSLRLSCAASGFTFSSYWMSWVPQAPGKGLEWVANIKQDGSAKFYVDSVKGRFTISRDNAKNSLYLQMNSLRAEDTAVYYCARSWGFAYWGQGTLVTVSS
# VL: DIQMTQSPSSLSASVGDRVTITCRASQGISNYLAWYQQKPGKVPKLLIYAASTLQSGVPSRFSGSGSGTDFTLTISSLQPEDVATYYCQKYNSAPWTFGQGTKVEIKR
# notes: fully human, from single cell clone screening
# B10: PR004342 (antibody, human IgG1, kappa, V domains shown)
# VH: B6 VH
# VL: DIVMTQSPLSLPVTPGEPASISCRSSKSLLHSNGNTYLYWFLQKPGQSPQLLIYRMSNLASGVPDRFSGSGSGTDFTLKISRVEAEDVGVYYCMQHLEYPFTFGQGTKLEIKR
# B11: PR004346 (antibody, human IgG1, kappa, V domains shown)
# VH: B6 VH
# VL: B10 VL with P15L, E17Q, L42Q, K44R, Q50R
# Tests used:
# [1] = molecular target: T1, human CCR8 (human, UniProt P51685 1-355); test: FACS, CHO-K1-hCCR8 cells
# T1 construct: whole, on cells; construct used for the overexpressing cell lines is not described; also called hCCR8
# T1 sequence (P51685 whole entry): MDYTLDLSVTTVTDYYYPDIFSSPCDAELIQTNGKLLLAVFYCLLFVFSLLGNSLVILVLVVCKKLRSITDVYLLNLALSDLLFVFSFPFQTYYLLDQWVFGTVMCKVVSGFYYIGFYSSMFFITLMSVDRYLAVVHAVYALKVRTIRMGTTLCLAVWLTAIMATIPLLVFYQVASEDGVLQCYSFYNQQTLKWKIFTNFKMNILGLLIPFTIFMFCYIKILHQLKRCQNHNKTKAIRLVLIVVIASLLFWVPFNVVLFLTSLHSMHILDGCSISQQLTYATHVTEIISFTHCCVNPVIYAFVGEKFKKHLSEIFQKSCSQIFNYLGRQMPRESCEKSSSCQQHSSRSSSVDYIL
# In short: (§1)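 Primary Ab 5-fold titration from 200 nM (DPBS/2% FBS), 1 h 4 °C; secondary 1:1000, 40 min 4 °C; 2× DPBS washes; flow cytometry read-out.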
# [2] = molecular target: T2, cynomolgus monkey CCR8 (cynomolgus monkey, UniProt G7NYJ2 1-355); test: FACS, CHO-K1-CynoCCR8 cells
# T2 construct: whole, on cells; also called CynoCCR8
# T2 sequence (G7NYJ2 entry or part of it): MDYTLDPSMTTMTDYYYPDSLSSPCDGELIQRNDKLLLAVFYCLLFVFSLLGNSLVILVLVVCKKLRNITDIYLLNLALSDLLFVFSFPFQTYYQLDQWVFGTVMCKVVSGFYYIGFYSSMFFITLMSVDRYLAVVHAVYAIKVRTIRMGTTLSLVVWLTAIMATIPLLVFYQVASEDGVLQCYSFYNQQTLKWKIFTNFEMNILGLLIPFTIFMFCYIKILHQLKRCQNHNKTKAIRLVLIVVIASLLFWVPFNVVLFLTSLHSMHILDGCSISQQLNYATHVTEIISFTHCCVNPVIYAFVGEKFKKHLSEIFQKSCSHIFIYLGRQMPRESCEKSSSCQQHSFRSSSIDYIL
# Description: (§2) Cells overexpressing cynomolgus monkey CCR8, CHO-K1-CynoCCR8, were digested with pancreatin, counted and resuspended to a cell density of 1E6 cells/mL. The cell suspension was added to a 96-well V-bottom plate at 100 μL/well and centrifuged at 300 g for 5 min, and the supernatant was discarded. The anti-CCR8 antibodies provided herein was used as a primary antibody and diluted in a 5-fold gradient with an FACS buffer (DPBS containing 2% FBS) from 200 nM. The diluted primary antibody was added at 100 μL/well to resuspend the cells, and the mixture was incubated at 4° C. for 1 h. The plate was washed twice with DPBS and centrifuged at 300×g for 5 min, and the supernatant was discarded. The secondary antibody diluted in a 1:1000 ratio with an FACS buffer was added at 100 μL/well to suspend the cells, and the mixture was incubated at 4° C. for 40 min. The plate was washed twice with DPBS and centrifuged at 300×g for 5 min, and the supernatant was discarded. DPBS was added at 200 μL/well to suspend the cells, and the mixture was loaded on an FACS machine for analysis.
# [3] = molecular target: T2, cynomolgus monkey CCR8; test: FACS on CHO-K1 cells overexpressing cynomolgus monkey CCR8
# Description: as §2
# [4] = molecular target: T1, human CCR8; test: cell-based or functional assay
# [5] = molecular target: T2, cynomolgus monkey CCR8; test: FACS, CHO-K1-CynoCCR8 cells; remark: listed apart in the source
# Description: as §2
# [6] = molecular target: T1, human CCR8; test: FACS, Baf3-hCCR8 cells
# Description: as §2, with “human CCR8” for “cynomolgus monkey CCR8, CHO-K1-CynoCCR8,”
# [7] = molecular target: T1, human CCR8; test: cell-based or functional assay; remark: listed apart in the source
# [8] = molecular target: T1, human CCR8; test: FACS, HEK293-hCCR8 cells
# Description: as §2, with “human CCR8” for “cynomolgus monkey CCR8, CHO-K1-CynoCCR8,”
# [9] = molecular target: T1, human CCR8; test: FACS, HEK293-hCCR8 cells; remark: listed apart in the source
# Description: as §2, with “human CCR8” for “cynomolgus monkey CCR8, CHO-K1-CynoCCR8,”
# [10] = molecular target: T2, cynomolgus monkey CCR8; test: FACS, CHO-K1-CynoCCR8 cells; remark: listed apart in the source
# Description: as §2
# [11] = molecular target: T1, human CCR8; test: FACS competition on HEK293-hCCR8 cells against a biotin-labelled anti-CCR8 antibody at its EC80; the labelled antibody of this panel is not named on the sheet
# Description: (§3) The antibody was conjugated with Sulfo-NHS-LC-Biotin at a molar ratio of 5:1 (1 mol antibody was added to 5 mol Sulfo-NHS-LC-Biotin) with reference to the product instructions (ThermoFisher, Cat No. A39257) and incubated on ice for 2 h. The coupled antibody was purified with a Zeba desalting column (ThermoFisher, Cat No. 89882). Cells overexpressing human CCR8, HEK293-hCCR8, were added to a V-bottom 96-well plate at a density of 1E5 cells/well and centrifuged at 300 g for 5 min, and the supernatant was discarded. The competitive antibody was serially diluted in a ratio of 1:10 from 200 nM to obtain 8 concentration points. The Biotin-antibody and the competition antibody were mixed in a 1:1 ratio on an HEK293 cell line overexpressing human CCR8 by the binding EC₈₀ concentration. The cells in the 96-well plate were resuspended and incubated at 4° C. for 1 h. The plate was washed twice with DPBS at 200 μL/well. The secondary antibody diluted in a 1:1000 ratio was added at 100 μL/well, and the mixture was incubated at 4° C. for 40 min. The plate was washed twice with DPBS at 200 μL/well. Finally, DPBS was […] at 200 μL/well to suspend the cells, and the mixture was loaded on an FACS machine for analysis.
# [12] = molecular target: T1, human CCR8; test: as above; remark: listed apart in the source
# Description: as §3
# [13] = molecular target: T1, human CCR8; test: as above; remark: listed apart in the source
# Description: as §3
# [14] = molecular target: T1, human CCR8; test: as above; remark: listed apart in the source
# Description: as §3
# [15] = molecular target: T1, human CCR8; test: as above; remark: listed apart in the source
# Description: as §3
# [16] = molecular target: T1, human CCR8; test: FACS on CHO-K1 cells overexpressing human CCR8
# Description: as §2, with “human CCR8” for “cynomolgus monkey CCR8, CHO-K1-CynoCCR8,”
# [17] = molecular target: T1, human CCR8; test: FACS, CHO-K1-hCCR8 cells; remark: listed apart in the source
# In short: as §1
binder,measurement,setting,value
B1,EC50,[1],0.62 nM
same,EC50,[2],1.88 nM
same,EC50 (read off the curve),[3],~2 nM
B2,"EC50, ADCC reporter gene activity (Jurkat/FcγR III-NFAT effector cells)",[4],2.6 nM
same,EC50,[1],0.4 nM
same,EC50,[5],0.51 nM
B3,"EC50, ADCC reporter gene activity (Jurkat/FcγR III-NFAT effector cells)",[4],1.66 nM
same,EC50,[1],0.39 nM
same,EC50,[5],0.5 nM
B4,"EC50, ADCC reporter gene activity (Jurkat/FcγR III-NFAT effector cells)",[4],0.59 nM
same,EC50,[6],0.21 nM
same,"Bottom %, blocking of CCL1-stimulated calcium flux",[7],23%
same,"IC50(nM), blocking of CCL1-stimulated calcium flux",[7],1.16 nM
same,EC50,[1],0.5 nM
same,EC50,[8],0.72 nM
same,EC50,[9],0.66 nM
same,EC50,[5],1.16 nM
same,EC50,[10],2.44 nM
same,IC50 (read off the curve),[11],~3 nM
same,IC50 (read off the curve),[12],~2 nM
same,IC50 (read off the curve),[13],~2 nM
same,IC50 (read off the curve),[14],~2 nM
same,IC50 (read off the curve),[15],1 to 2 nM
B5,"EC50, ADCC reporter gene activity (Jurkat/FcγR III-NFAT effector cells)",[4],0.04 nM
same,EC50,[9],1.66 nM
same,EC50,[10],3.5 nM
B6,EC50 (read off the curve),[16],~2 nM
B7,EC50 (read off the curve),[16],~1 nM
B8,EC50 (read off the curve),[16],~1 nM
B9,binding result,[16],binds
B10,EC50,[17],0.8 nM
same,binding result,[3],no binding (tested: 200 nM)
B11,EC50,[17],0.91 nM
same,binding result,[3],no binding (tested: 200 nM)
